Molecular target: Sushi domain of IL15Rα (aa1-66) fused to the CH2-CH3 of human IgG1 Fc
Experiment: SEC

Sequence of Sushi domain of IL15Rα (aa1-66) fused to the CH2-CH3 of human IgG1 Fc (Q13261 1-66): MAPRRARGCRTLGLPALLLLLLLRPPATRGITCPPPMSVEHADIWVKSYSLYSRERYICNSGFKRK

- stoichiometry N: 2
Substance: Sushi domain of IL15Rα (aa1-66) fused to the CH2-CH3 of human IgG1 Fc (Fc fusion)
